Reference: the DeepSol protein solubility set

Assay: soluble on expression in E. coli; label from the status in PepcDB or PDB records

Sequence	soluble on expression in E. coli
MGSDKIHHHHHHMNKLEIENLSKIYGKKVANDKITVTLENGVYGLLGPNGAGKSTLMKQITTLIKPDEGQILYNGEDIFKMDADYRNILGYLPQEFGVYKNFTAKEFLQYIGALKGLRGKYLNSKIGELLDLVGLYDVRNKSIGKFSGGMKRRVGIAQVLLNDPKIIVLDEPTAGLDPQERARFRNLIAKMSRDKIIILSTHIISDIESVAKETIMIKDGKLLMKGTHKDILSHMENKVYNVQVKNECEVDDIQSKYKVVSIQSDINSIVLRIVSEDIPSEDNIQPVQAKFEDVYMFYFDLEDAREV	not soluble
MHFRMKVLENSSKHNTPKKQKTFQHYLPAGDRCYSCIHCRANLAAHAELISKSFQGSQGKAYLFNAVVNVGCGPAEERVLLTGLHAVADIYCEICKTTLGWKYEHAFESSQKYKEGKFIIELAHMVKDNGWDEQNDS	not soluble
MLTNCASKTLAAVRANIRAIATSSARASDNLFVHRDTPEDNPNIPFEFTAENKKRVEAILSIYPEGHKRGAMIPLLDLAQRQYGWLPISAMHKVAEILQLPNMRVYEVATFYTMFMRKPTGKYHIQVCTTTPCWLRGSDDILETCKKQLGIGVGDTTKDRKFTISEVECLGACVNAPMVAINDDYYEDLTSKDMQDILNDLKADKISPPGPRNGRFASEPKGEPTSLSEEPKGPGFGLQAGL	not soluble
MSLSNDISILFVEDDKEVRAQISDFLTSNMFKDVYVANNGKDGLLKYNIHKPDIVLSDLNMPIMDGLEMSRAIKALDENTPILLITSNFEKNVTEAAVDIGIEGCLFKPLSLNRVEKILTKYIEKIMFQREFKNKQKLLEQYKSIIDISSSVTKTDINGIITYVNNPFCDMSGYSKDELLGKNHTIISHPDNSKEFYEEIYSTLRDKKIWRGHIKNRRKNGDSYYESSVIAPILDENDEIVECISLKQDITELYAEGHHHHHH	soluble
MSLNPYKIEVVDHTKLVESNTSINEKEEKSISSVEERANLYEDDEENDEEEDSNEFASEAIPFYSVLGEKDYFYFPSEQIQEHYSKRIPGYFMPNNYYCVNYDFTYNPVKKNVNGDEDDDDDEEEEEGDSGTDRKVKTQEKFRASFIFIDTWALMVGFPIIRNYRAFREQFNWLSKTLYESAKKSDWIFVVGHHPLISSGRRSDNYSYEEHSFHDIIRDFLFNYHVDAYFSAHDHLMEYIKFGSVDLFINGSSSRVLFDNSSMGRGYFGKIIGKLYPLSCYVLKTIHTGLKPKGCNINRYSKWYNKSDIGFSTHKLTKDELVTQFISSRTGKPLSEKIITKNKKHEREGHHHHHH	soluble
MGSDKIHHHHHHVLINQQYTRHGPDYRFGEQVTFLDVKQTFGFSHVRVGRWVTRDESRLAADLVFDSLADLAFILKLPPLKLGLRETVSLAFGHGGQKGVQAHYAPAARELALAKNAGAGALAHEFWHAFDHYIAAKSFKSSSKRFQCASDLWLSDLPIIEHPLNARLSEIFKVTFLSGNGDEPHDYVRRAIALDKKHGMQYFARPTEMMARAFEACIESYDDISNPYLVSGTRFSAMAKEGAYPDEAHRKVIFQALINYFEPLGMALSKHPLG	not soluble
MSRFWSRWYSGLVSCTARVIMIDLNHLDTIANRLSDLLPPALYESRGELQTLFKDVLQAGLAKLDLVTREEFEIQRVILLSTREKLETLLHTLVLLEDRLTDQGKNLEHHHHHH	not soluble
MNSQTTKDIPCFRSYLPDALRLRFEDKLTIRAIAQRLGLSHSTIHTLFQRFLASGIAWPLPDSVSFAQLDAILYANRKKELTEPQIREGSWRKERRTSYSREFKVRLAKQALQPGAVVARIAREHDINDNLLFKWKSQYEDGLLSDDDIQECMPVPVALTDTPEPTRPVTNPFWRNKHDERPEGAPGNVPRCELHLKSGVVKLFDPLTPELLRALIREMKGGIRLEHHHHHH	soluble
MSLGFKEYYRVFPTYTDINSQEYRSRIETLEPLLMKYMKKRGKVLDLACGVGGFSFLLEDYGFEVVGVDISEDMIRKAREYAKSRESNVEFIVGDARKLSFEDKTFDYVIFIDSIVHFEPLELNQVFKEVRRVLKPSGKFIMYFTDLRELLPRLKESLVVGQKYWISKVIPDQEERTVVIEFKSEQDSFRVRFNVWGKTGVELLAKLYFTKEAEEKVGNYSYLTVYNPKEGHHHHHH	soluble
MGSDKIHHHHHHMATRATQISTLVEEIANNPNLKEDLKILPSNYTFEVPKTIWKIRSTESKYVALQFPEGLIMYACVIADILEKYTGCDTVIMGDVTYGACCVDDYTAKSMGCDLLVHYGHSCLVPIQNTDGIAMLYVFVNIHINLSHLIDCVKENFQGKRLVVVSTVQFIPSLQTLRTTFNKDDSSIRIDIPQCKPLSPGEVLGCTSPRLDASKYDAIVYLGDGRFHLESIMIHNPEIEAFQYDPYSRKLTREFYDHDLMRKNRIGSIEIARKCTTFGLIQGTLGRQGNLKVVEELEAQLERKGKKFLRVLLSEIFPEKLAMFPEVDCWVQVACPRLSIDWGTQFPKPLLYPFELAVALDNISVPSDHWPMDYYSNDSLGPWTNNNEANRPKREKRKPHIVVRTEAS	not soluble
SSAQFDHVTVIKKSNVYFGGLCISHTVQFEDGTKKTLGVILPTEQPLTFETHVPERMEIISGECRVKIADSTESELFRAGQSFYVPGNSLFKIETDEVLDYVCHLE	not soluble
TKDFSWRTSLNFAYNKNKIVDLQYKENLTSRGLSLAGMSGDYSNLWIIGQPIDINYNLMTLGVWQLDEAEEAAKYGCKPGQYKPLDLNEDGVIDDKDRVIDGKRTPDWTGGMTNTFTYKEFDLSFQAAFQAGARARNQFYVSYALENNNLNFNNLRKDYWTPENPTNASAQPSNMGTYRSKAGSWGNAKSEMSHTMFSSNFLKISYITLGYTFKPSVLEKMKLGNLRLYATVQNPFIFCAKDVVDPEQLNVSINTSDAMTRNVIFGINLSFK	not soluble
SLHVTELTAFLVPLPLKREIKHASFTRTESINLLIRCKLSNGTIGWGEGVPRPYVTGETPEGCLQQLSQSNLHPALMQSASNWPEVIAICDALQFNNDSDDSRGCGSNSLRCAVELSLLDAFGRHFGQPVSAVVPHVAEAAEIHVRQPRVRYSTTITSSGAKSERISALKMRAYGFAQCKIKVGVDGQDDPSRVARIRRWIGGGVDLRLDANEAWRPEEVAEKMRPLREFGVTCIEQPVAHDQVDALASLRESIGVPIMLDESLTSRMDAERAIELGTCDLFNLRLSKCGGFLSCLRLAALARASGLGYQLGCHPGESGVLSAAGRHWASSVRDIRYLEGSYDRHLLTTLPTQEDITFRYGGWAPALDSPGLGVTIREDWLRQNAKAERTFVVEAQ	soluble
MDTLRYLTGYPPAVLEQVRALIAQDKLGAVLAQRYPERHTVRTDRQLYDYVKEMKERYMRSSPTLHKAIYDNHLQVVKHALGTHTAISRVHGSRLKASREIRIAAIFRDAPAPFLQMIVAHELAHLKEPEHDKAFYQLCHHMAPDYHQLEFDLRLYLTQLALSPRDLEHHHHHH	soluble
MLSAWFSGKYSVLKDENGYVFLDRDGDRFRHILNYLRCGTVHIGEDIRLLGEILEEAEYFGLQSLAQQLKEALLQCRVKQEEKESSVCGRMNNEDNLFHPMFEPLDGFSSSQTSQGEPLLTLLPSSQEFRLDEDF	soluble
MATPAFVKRITRSDAVLSLGVNFSKIYFKFVMWTGRYDRQAVPIPEPYILAMWHGRLIMAPMLQTKSKPLVALISGHRDGKIISRVGAAFGIQTAVGSSSKGGMRAAREMMRLGKSGHSLFVTPDGPRGPRMRINSEGVLDMARLTGLPILPVSVSLSRHKLLRSWDRLMLPGLFAKVAIRFGEPITVEAGSPTAEMAERLQAALTAAQNETDRIVGLQPVETALEHHHHHH	soluble
MFIRGREMISAVIEALIGSISLSTGLHTKKIDANIRYLQQYEWFRIIYEDEKYRKLFITNYKVRSYLQSKLRVRLLVKNKNAQRRFLKLVEEQIEKRHTN	not soluble
